# According to publication PMC5877318:
# B1: 28-bp mouse Igf2-P0 crystallization oligo (dsDNA)
# DNA 1: TGTGGGCGTGGCACAGGTAAAAAGGGCA
# DNA 2: TGCCCTTTTTACCTGTGCCACGCCCACA
# B2: 26-bp mouse Igf2-P0 crystallization oligo (dsDNA)
# DNA 1: GTGGGCGTGGCACAGGTAAAAAGGGC
# DNA 2: GCCCTTTTTACCTGTGCCACGCCCAC
# How the values were obtained:
# Assay in all cases: X-ray crystallography
# [1] = biological target: mZFP568 ZF2-11 (Mus musculus, UniProt E9PYI1 391-665)
# [2] = biological target: mZFP568 ZF1-11 (Mus musculus, UniProt E9PYI1 363-665)
# Chain of mZFP568 ZF1-11 (E9PYI1 363-665): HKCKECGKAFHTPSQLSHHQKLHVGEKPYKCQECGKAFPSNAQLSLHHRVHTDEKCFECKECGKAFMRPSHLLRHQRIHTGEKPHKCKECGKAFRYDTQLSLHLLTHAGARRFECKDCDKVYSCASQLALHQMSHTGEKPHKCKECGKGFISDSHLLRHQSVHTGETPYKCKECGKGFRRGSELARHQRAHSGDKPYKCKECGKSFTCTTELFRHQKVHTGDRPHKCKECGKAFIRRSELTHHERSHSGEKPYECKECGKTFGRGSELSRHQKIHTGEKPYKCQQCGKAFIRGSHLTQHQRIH
# [3] = biological target: mZFP568 ZF1-10 (Mus musculus, UniProt E9PYI1 363-637)
# Chain of mZFP568 ZF1-10 (E9PYI1 363-637): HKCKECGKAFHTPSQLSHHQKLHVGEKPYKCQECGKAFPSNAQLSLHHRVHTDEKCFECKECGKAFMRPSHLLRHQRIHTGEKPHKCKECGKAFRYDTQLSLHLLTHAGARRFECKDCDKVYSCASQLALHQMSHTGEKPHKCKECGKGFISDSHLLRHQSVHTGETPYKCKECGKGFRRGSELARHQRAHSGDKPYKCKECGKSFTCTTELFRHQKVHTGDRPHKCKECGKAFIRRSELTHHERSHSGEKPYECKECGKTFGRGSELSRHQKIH
# Chain of mZFP568 ZF2-11 (E9PYI1 391-665): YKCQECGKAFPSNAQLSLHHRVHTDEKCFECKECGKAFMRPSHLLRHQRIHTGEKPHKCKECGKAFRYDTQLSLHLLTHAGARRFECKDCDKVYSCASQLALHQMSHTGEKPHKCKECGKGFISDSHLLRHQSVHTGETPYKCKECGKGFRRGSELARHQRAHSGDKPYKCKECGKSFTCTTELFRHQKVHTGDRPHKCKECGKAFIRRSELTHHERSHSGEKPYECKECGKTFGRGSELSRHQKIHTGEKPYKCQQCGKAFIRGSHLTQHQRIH
Binder,binding result [1],binding result [2],binding result [3]
B1,binds,binds,
B2,,,binds
